From paper PMC8181125 come the findings set out here.

What all share (conditions): glycan lost; control: wild type
Series [1] in a line: Western blot of full-length PDGF-C in conditioned medium. Background: Immunoblotting shows a protein as a band on a membrane.
A short description of series [2]: immunofluorescence colocalisation with ER marker ERP72, HEK293A.
Series [3] can be described thus: immunofluorescence with Golgi marker TGN46, HEK293A.
The nature of series [4]: Western blot of core domain in conditioned medium.
Series [5] in a line: Western blot of transfected HEK293A cell lysates.

In the case of PDGF-C (full-length, PC-FL): N25A, the expression_or_secretion entry in series [1] and in series [5] was “no change” each time. The localisation_or_trafficking entry in series [2] and in series [3] was “no change” each time. Besides, the “other: proteolytic processing” value in series [4] is listed as “no change”.
On to “PDGF-C (full-length, PC-FL): N25A + N55A”, for which the expression_or_secretion result in series [1] and in series [5] was “no change” each time.
For the substance “PDGF-C (full-length, PC-FL): N25A + N254A”, the expression_or_secretion result in series [1] and in series [5] was “no change” in each case. Besides, the “other: proteolytic processing” value in series [4] is reported as “abolishes”.
Turning to PDGF-C (full-length, PC-FL): N55A, the expression_or_secretion entry in series [1] and in series [5] was “no change” in each case. Also, the localisation_or_trafficking entry in series [2] and in series [3] was “no change” throughout. Besides, the “other: proteolytic processing” value in series [4] was “no change”.
Regarding “PDGF-C (full-length, PC-FL): N55A + N254A”, the expression_or_secretion entry in series [1] and in series [5] was “no change” in each case. Moreover, in series [4], the “other: proteolytic processing” value was “abolishes”.
Regarding PDGF-C (full-length, PC-FL): N254A, the expression_or_secretion result in series [1] and in series [5] was “no change” in each case. The localisation_or_trafficking entry in series [2] and in series [3] was “no change” each time.
For “PDGF-C (full-length, PC-FL): triple NA mutant”, the expression_or_secretion entry in series [1] and in series [5] was “no change” each time. The “other: proteolytic processing” value in series [4] is “abolishes”.
